Test results reported in patent US5985836A, “Alpha-1 proteinase inhibitor binding peptides” (Bayer Corporation, priority 1998, dated 1999).
Ends that are not written are not given here.

What was measured:
[1] = target: T1, A1PI (Homo sapiens, UniProt P01009); experiment: A1PI binding on peptide-resin column, injection of 1 mg A1PI in equilibration buffer; conditions: 1 mg A1PI in equilibration buffer; for Percent A1PI Eluted by Fraction Based on Absorbance at 280 nm, 1M NaCl / Percent A1PI Eluted by Fraction Based on Absorbance at 280 nm, 2% Acetic Acid / Percent A1PI Eluted by Fraction Based on Absorbance at 280 nm, Flowthrough: 4° C.; for Percent A1PI Eluted by Fraction, 1M NaCl / Percent A1PI Eluted by Fraction, 2% Acetic Acid / Percent A1PI Eluted by Fraction, Flowthrough: 20° C.
T1 construct: Human plasma is currently the only approved source of therapeutic AlPI
T1 sequence (P01009 25-418): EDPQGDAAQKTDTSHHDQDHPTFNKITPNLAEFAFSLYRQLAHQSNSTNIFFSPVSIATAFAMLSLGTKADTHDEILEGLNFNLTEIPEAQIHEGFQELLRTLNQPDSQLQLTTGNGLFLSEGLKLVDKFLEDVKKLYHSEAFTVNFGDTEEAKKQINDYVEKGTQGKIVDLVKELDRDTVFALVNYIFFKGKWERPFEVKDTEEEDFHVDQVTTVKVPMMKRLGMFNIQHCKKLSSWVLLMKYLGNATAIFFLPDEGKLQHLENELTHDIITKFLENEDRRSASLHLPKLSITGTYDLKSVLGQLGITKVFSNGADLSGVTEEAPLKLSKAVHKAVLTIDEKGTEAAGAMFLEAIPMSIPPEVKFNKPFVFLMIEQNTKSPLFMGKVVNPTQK
How it was run: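 Peptides synthesized on A-Totda-Toyopearl chelate resin (0.1 mmole/g) packed in 0.4×5 cm columns; 1 mg A1PI injected in equilibration buffer at 4 °C or 20 °C, 865 or 523 μl/min. Flowthrough, 1M/3M NaCl washes and 2% acetic acid eluate quantified by A280 or immunonephelometry as percent of total eluted.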

[2] = target: T1, A1PI; experiment: A1PI purification from 5 mg hSA + 1 mg A1PI on peptide column, A1PI mass balance; format: binding; conditions: A1PI, 5 mg hSA + 1 mg A1PI; for Mass Protein per Eluate Fraction, 1M NaCl / Mass Protein per Eluate Fraction, 2% Ac. Acid / Mass Protein per Eluate Fraction, Flow: * Below detection limit; for Percent Eluted by Fraction, 1M NaCl / Percent Eluted by Fraction, 2% Ac. Acid / Percent Eluted by Fraction, 3M NaCl / Percent Eluted by Fraction, Flow: relative to total eluted
How it was run: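 Peptides on A-Totda-Toyopearl resin (0.1 mmole/g) in 0.4×5 cm columns; 5 mg hSA + 1 mg A1PI loaded at 4 °C or 20 °C with 10 min residence (17 μl/min). Steps of 1M and 3M NaCl, then 2% acetic acid; fractions quantified by immunonephelometry for mass balance.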

[3] = target: T1, A1PI; experiment: Purification of A1PI from Effluent II+III on peptide column, A1PI mass balance; format: binding; conditions: A1PI, 1 ml Eff. II+III, 4° C.; for Mass Protein per Eluate Fraction, 1M NaCl / Mass Protein per Eluate Fraction, 2% Acetic Acid / Mass Protein per Eluate Fraction, Flow: * as in Tables 4, 5 (below detection limit)
How it was run: (§1)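 Peptide-ligand columns were loaded with 1 ml Cohn Effluent II+III (20% v/v ethanol, 20-25 mg/ml hSA, ~1 mg/ml A1PI, other plasma proteins at 0.1-1 mg/ml) using a 10 min residence time at 4° C. Step elutions at 865 μl/min used 1M NaCl, 3M NaCl, then 2% acetic acid, and protein mass balances were tracked across fractions.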

[4] = target: T2, apolipoprotein alpha-1 (Apo A-1) (Homo sapiens, UniProt P02647); experiment: Purification from Effluent II+III, Apo A-1 mass balance; format: binding; conditions: 1 ml Eff. II+III, 4° C.
T2 construct: Eff; II+III is a process intermediate in the Cohn plasma fractionation process; tissue Bayer Corporation (Clayton, N.C.); host or cells: plasma fraction: Cohn Effluent II+III
T2 sequence (P02647 19-267): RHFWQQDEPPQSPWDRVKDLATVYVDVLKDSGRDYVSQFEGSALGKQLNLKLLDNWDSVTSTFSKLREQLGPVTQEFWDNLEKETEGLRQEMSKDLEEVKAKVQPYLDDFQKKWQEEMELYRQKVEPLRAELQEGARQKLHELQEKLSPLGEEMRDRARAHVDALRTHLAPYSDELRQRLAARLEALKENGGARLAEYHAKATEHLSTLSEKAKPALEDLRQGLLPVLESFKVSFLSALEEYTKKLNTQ
How it was run: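 Mass balance per protein was determined over the load and each step eluate (1M NaCl, 3M NaCl, 2% acetic acid) of peptide columns challenged with 1 ml Effluent II+III. The feed contained 20% ethanol and 20-25 mg/ml hSA, the flow was 865 μl/min after a 10 min residence, and the temperature was 4° C.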

[5] = system: Immunoglobulin A (IgA); experiment: Purification from Effluent II+III, IgA mass balance; format: binding, human; conditions: 1 ml Eff. II+III, 4° C.; for Mass Protein per Eluate Fraction, 1M NaCl / Mass Protein per Eluate Fraction, 2% Acetic Acid / Mass Protein per Eluate Fraction, Flow: * as in Tables 4, 5 (below detection limit)
How it was run: as §1

[6] = system: Immunoglobulin G (IgG); experiment: Purification from Effluent II+III, IgG mass balance; format: binding, human; conditions: 1 ml Eff. II+III, 4° C.; for Mass Protein per Eluate Fraction, Flow: * as in Tables 4, 5 (below detection limit)
How it was run: as §1

[7] = system: haptoglobin (Hpt); experiment: Purification from Effluent II+III, haptoglobin mass balance; format: binding, human; conditions: 1 ml Eff. II+III, 4° C.
Procedure: Sequences 1-11 and 15 were assayed with Effluent II+III (Eff. II+III). Eff. II+III is a process intermediate in the Cohn plasma fractionation process. The feed stream contains 20% (by volume) ethanol, 20-25 mg/ml hSA and approximately 1 mg/ml AlPI. The stream also contains other proteins including anti-thrombin III (AT3), immunoglobin G (IgG), immunoglobin A (IgA), apolipoprotein alpha-1 (Apo A-1), transferrin (Trf), haptoglobin (Hpt), and alpha-1 acid glycoprotein (AAG) at concentrations ranging from 0.1-1 mg/ml.
The columns were assayed using the same technique as the hSA+AlPI experiments, allowing for a 10 minute residence time followed by a constant flow rate of 865 μl/min with step elutions of 1M NaCl, 3M NaCl, and 2% acetic acid. All experiments were conducted at 4° C. The mass balances for the injection of 1 ml Eff. […] The AlPI was enriched from 3% of the total protein in the feed to upwards of 50% in the acid eluate.

[8] = target: T1, A1PI; experiment: Capture and elution of active A1PI with 2M urea buffer (elastase inhibition activity assay and immunonephelometry); format: binding; conditions: 4° C.; for Mass A1PI in Urea Eluate (mg), Activity / Mass A1PI in Urea Eluate (mg), Nephelometry: 1 mg A1PI, eluted with 2M urea, pH 6; for Mass A1PI in Urea Eluate (mg), Activity: elastase inhibition activity assay; for Mass A1PI in Urea Eluate (mg), Nephelometry: immunonephelometry; for Specific Activity: mass of A1PI by activity assay relative to immunonephelometry, urea eluate
[9] = target: T1, A1PI; experiment: A1PI yield from dialyzed (aqueous) Effluent II+III; format: binding; conditions: 4° C.
Procedure: Effluent II+III was dialyzed against equilibration buffer at 4° C. to remove the ethanol using a 15,000 molecular weight cut-off membrane. Nephelometry of the Eff. […] A portion of the identified sequences were assayed under the same conditions applied for neat Eff. II+III at 4° C. […] II+III compared to the neat, ethanol-containing feed. The binding strength differed for the aqueous feed as more AlPI eluted in 1M NaCl for the aqueous feed. The AlPI eluted in the 1M NaCl fractions was not as enriched as that eluted in the acid eluates.

[10] = * as in Tables 4, 5 (below detection limit)
[11] = 1 ml dialyzed Eff. II+III (ethanol removed)
[12] = A1PI, 1 ml dialyzed Eff. II+III

Substance: LIVHRW
- Percent A1PI Eluted by Fraction Based on Absorbance at 280 nm, 1M NaCl [1]: 74%
- Percent A1PI Eluted by Fraction Based on Absorbance at 280 nm, 2% Acetic Acid [1]: 26%
- Percent A1PI Eluted by Fraction Based on Absorbance at 280 nm, Flowthrough [1]: 0%
- Percent A1PI Eluted by Fraction, 1M NaCl [1]: 64%
- Percent A1PI Eluted by Fraction, 2% Acetic Acid [1]: 36%
- Percent A1PI Eluted by Fraction, Flowthrough [1]: 0%
- Mass Protein per Eluate Fraction, 1M NaCl ([2]; 4° C.): 0.40 mg
- Mass Protein per Eluate Fraction, 2% Ac. Acid ([2]; 4° C.): 0.24 mg
- Percent Eluted by Fraction, 1M NaCl ([2]; 4° C.): 62%
- Percent Eluted by Fraction, 2% Ac. Acid ([2]; 4° C.): 38%
- Percent Eluted by Fraction, 3M NaCl ([2]; 4° C.): 0%
- Percent Eluted by Fraction, Flow ([2]; 4° C.): 0%
- Mass Protein per Eluate Fraction, 1M NaCl ([2]; 20° C.): 0.15 mg
- Mass Protein per Eluate Fraction, 2% Ac. Acid ([2]; 20° C.): 0.37 mg
- Mass Protein per Eluate Fraction, Flow ([2]; 20° C.): 0.34 mg
- Percent Eluted by Fraction, 1M NaCl ([2]; 20° C.): 18%
- Percent Eluted by Fraction, 2% Ac. Acid ([2]; 20° C.): 43%
- Percent Eluted by Fraction, 3M NaCl ([2]; 20° C.): 0%
- Percent Eluted by Fraction, Flow ([2]; 20° C.): 39%
- Percent Eluted by Fraction, 1M NaCl [3]: 16%
- Percent Eluted by Fraction, 2% Acetic Acid [3]: 25%
- Percent Eluted by Fraction, 3M NaCl [3]: 0%
- Percent Eluted by Fraction, Flow [3]: 59%
- Mass Protein per Eluate Fraction, 1M NaCl [3]: 0.20 mg
- Mass Protein per Eluate Fraction, 2% Acetic Acid [3]: 0.30 mg
- Mass Protein per Eluate Fraction, Flow [3]: 0.71 mg
- Percent Eluted by Fraction, 1M NaCl [4]: 0%
- Percent Eluted by Fraction, 2% Acetic Acid [4]: 51%
- Percent Eluted by Fraction, 3M NaCl [4]: 0%
- Percent Eluted by Fraction, Flow [4]: 49%
- Mass Protein per Eluate Fraction, 2% Acetic Acid [4, 10]: 0.30 mg
- Mass Protein per Eluate Fraction, Flow [4, 10]: 0.28 mg
- Percent Eluted by Fraction, 1M NaCl [5]: 43%
- Percent Eluted by Fraction, 2% Acetic Acid [5]: 20%
- Percent Eluted by Fraction, 3M NaCl [5]: 0%
- Percent Eluted by Fraction, Flow [5]: 37%
- Mass Protein per Eluate Fraction, 1M NaCl [5]: 0.18 mg
- Mass Protein per Eluate Fraction, 2% Acetic Acid [5]: 0.08 mg
- Mass Protein per Eluate Fraction, Flow [5]: 0.15 mg
- Percent Eluted by Fraction, 1M NaCl [6]: 0%
- Percent Eluted by Fraction, 2% Acetic Acid [6]: 0%
- Percent Eluted by Fraction, 3M NaCl [6]: 0%
- Percent Eluted by Fraction, Flow [6]: 100%
- Mass Protein per Eluate Fraction, Flow [6]: 0.31 mg
- Percent Eluted by Fraction, 1M NaCl [7]: 40%
- Percent Eluted by Fraction, 2% Acetic Acid [7]: 0%
- Percent Eluted by Fraction, 3M NaCl [7]: 0%
- Percent Eluted by Fraction, Flow [7]: 60%
- Mass Protein per Eluate Fraction, 1M NaCl [7, 10]: 0.29 mg
- Mass Protein per Eluate Fraction, Flow [7, 10]: 0.43 mg
- Mass A1PI in Urea Eluate (mg), Activity [8]: 0.75 mg
- Mass A1PI in Urea Eluate (mg), Nephelometry [8]: 0.85 mg
- Specific Activity [8]: 0.88 mg/mg

Substance: RYRIFI
- Percent A1PI Eluted by Fraction Based on Absorbance at 280 nm, 1M NaCl [1]: 40%
- Percent A1PI Eluted by Fraction Based on Absorbance at 280 nm, 2% Acetic Acid [1]: 60%
- Percent A1PI Eluted by Fraction Based on Absorbance at 280 nm, Flowthrough [1]: 0%
- Percent A1PI Eluted by Fraction, 1M NaCl [1]: 35%
- Percent A1PI Eluted by Fraction, 2% Acetic Acid [1]: 65%
- Percent A1PI Eluted by Fraction, Flowthrough [1]: 0%
- Mass Protein per Eluate Fraction, 1M NaCl ([2]; 4° C.): 0.27 mg
- Mass Protein per Eluate Fraction, 2% Ac. Acid ([2]; 4° C.): 0.71 mg
- Percent Eluted by Fraction, 1M NaCl ([2]; 4° C.): 28%
- Percent Eluted by Fraction, 2% Ac. Acid ([2]; 4° C.): 72%
- Percent Eluted by Fraction, 3M NaCl ([2]; 4° C.): 0%
- Percent Eluted by Fraction, Flow ([2]; 4° C.): 0%
- Mass Protein per Eluate Fraction, 1M NaCl ([2]; 20° C.): 0.21 mg
- Mass Protein per Eluate Fraction, 2% Ac. Acid ([2]; 20° C.): 0.50 mg
- Mass Protein per Eluate Fraction, Flow ([2]; 20° C.): 0.22 mg
- Percent Eluted by Fraction, 1M NaCl ([2]; 20° C.): 23%
- Percent Eluted by Fraction, 2% Ac. Acid ([2]; 20° C.): 53%
- Percent Eluted by Fraction, 3M NaCl ([2]; 20° C.): 0%
- Percent Eluted by Fraction, Flow ([2]; 20° C.): 24%
- Percent Eluted by Fraction, 1M NaCl [3]: 9%
- Percent Eluted by Fraction, 2% Acetic Acid [3]: 66%
- Percent Eluted by Fraction, 3M NaCl [3]: 0%
- Percent Eluted by Fraction, Flow [3]: 25%
- Mass Protein per Eluate Fraction, 1M NaCl [3]: 0.07 mg
- Mass Protein per Eluate Fraction, 2% Acetic Acid [3]: 0.50 mg
- Mass Protein per Eluate Fraction, Flow [3]: 0.19 mg
- Percent Eluted by Fraction, 1M NaCl [4]: 0%
- Percent Eluted by Fraction, 2% Acetic Acid [4]: 100%
- Percent Eluted by Fraction, 3M NaCl [4]: 0%
- Percent Eluted by Fraction, Flow [4]: 0%
- Mass Protein per Eluate Fraction, 2% Acetic Acid [4, 10]: 0.39 mg
- Percent Eluted by Fraction, 1M NaCl [5]: 17%
- Percent Eluted by Fraction, 2% Acetic Acid [5]: 60%
- Percent Eluted by Fraction, 3M NaCl [5]: 0%
- Percent Eluted by Fraction, Flow [5]: 22%
- Mass Protein per Eluate Fraction, 1M NaCl [5]: 0.06 mg
- Mass Protein per Eluate Fraction, 2% Acetic Acid [5]: 0.23 mg
- Mass Protein per Eluate Fraction, Flow [5]: 0.08 mg
- Percent Eluted by Fraction, 1M NaCl [6]: 0%
- Percent Eluted by Fraction, 2% Acetic Acid [6]: 0%
- Percent Eluted by Fraction, 3M NaCl [6]: 0%
- Percent Eluted by Fraction, Flow [6]: 100%
- Mass Protein per Eluate Fraction, Flow [6]: 0.24 mg
- Mass A1PI per Eluate Fraction, 1M NaCl [9, 11]: 0.15 mg
- Mass A1PI per Eluate Fraction, 2% Acetic Acid [9, 11]: 0.25 mg
- Mass A1PI per Eluate Fraction, Flowthrough [9, 11]: 0.21 mg
- Percent Eluted by Fraction, 1M NaCl [9, 12]: 24%
- Percent Eluted by Fraction, 2% Acetic Acid [9, 12]: 41%
- Percent Eluted by Fraction, Flowthrough [9, 12]: 35%
- Mass A1PI in Urea Eluate (mg), Activity [8]: 0.67 mg
- Mass A1PI in Urea Eluate (mg), Nephelometry [8]: 0.79 mg
- Specific Activity [8]: 0.86 mg/mg
